Laboratory results as given in patent publication US20160297884A1 (Pfizer, published 2016).
Substitutions are numbered along the chain they refer to.

T1: Human BCMA (human, UniProt Q02223 1-54, limits assumed)
T1 construct: Soluble analyte in SPR; construct not described; also called huBCMA; B-cell maturation antigen
T1 sequence (looked up): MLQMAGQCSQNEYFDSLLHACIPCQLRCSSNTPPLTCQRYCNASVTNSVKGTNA

B1: L1.GDF/L3.KW/H3.AL (antibody, V domains shown)
VH: EVQLLESGGGLVQPGGSLRLSCAASGFTFGSYAMTWVRQAPGKGLEWVSAISGSGGNTFYADSVKGRFTISRDNSKNTLYLQMNSLRAEDTAVYYCARVSPIAALMDYWGQGTLVTVSS
VL: EIVLTQSPGTLSLSPGERATLSCRASQSVGDFYLAWYQQKPGQAPRLLIYGASSRATGIPDRFSGSGSGTDFTLTISRLEPEDFAVYYCKHYGWPPSFTFGQGTKVEIK
notes: IgG
B2: L1.GDF/L3.NY/H3.AP (antibody, V domains shown)
VH: B1 VH with L105P
VL: B1 VL with K90Q, G93N, W94Y
notes: IgG
B3: L1.GDF/L3.KW/H3.AQ (antibody, V domains shown)
VH: B1 VH with L105Q
VL: B1 VL
notes: IgG
B4: L1.GDF/L3.NY/H3.AL (antibody, V domains shown)
VH: B1 VH
VL: B1 VL with K90Q, G93N, W94Y
notes: IgG
B5: L1.GDF/L3.KW/H3.AP (antibody, V domains shown)
VH: B1 VH with L105P
VL: B1 VL
notes: IgG
B6: P6E01/H3.AQ (antibody, V domains shown)
VH: B1 VH with L105Q
VL: not shown
notes: IgG
B7: P6E01/P6E01 (antibody, V domains shown)
VH: B1 VH with A104S, L105G
VL: not shown
notes: IgG
B8: L3.PY/L3.KY/P6E01 (antibody, V domains shown)
VH: B1 VH with A104S, L105G
VL: B1 VL with G30S, D31S, F32S, H91Y, G93P, W94Y
notes: IgG
B9: L3.PY/L1.PS/H3.YA (antibody, V domains shown)
VH: B1 VH with A103Y, L105G
VL: B1 VL with G30S, D31S, F32S, L34P, A35S, K90Q, G93P, W94Y
notes: IgG
B10: L3.PY/L1.PS/P6E01 (antibody, V domains shown)
VH: B1 VH with A104S, L105G
VL: B1 VL with G30S, D31S, F32S, L34P, A35S, K90Q, G93P, W94Y
notes: IgG
B11: L3.PY/L3.KF/P6E01 (antibody, V domains shown)
VH: B1 VH with A104S, L105G
VL: B1 VL with G30S, D31S, F32S, H91F, G93P, W94Y
notes: IgG

biological target: T2, cynomolgus monkey BCMA (cynomolgus monkey, UniProt A0A2K5UD97 1-53); assay: SPR, IgG immobilised, 25 C
T2 construct: Soluble analyte in SPR; construct not described; also called cyBCMA; Cyno BCMA
T2 sequence (A0A2K5UD97 entry or part of it): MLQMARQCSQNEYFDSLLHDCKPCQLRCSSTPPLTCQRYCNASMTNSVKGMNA
Procedure: (§1) All experiments were performed on a Bio-Rad Proteon XPR36 surface Plasmon resonance biosensor (Bio-Rad, Hercules, Calif.). […] The analysis temperature for the immobilization was 25° C. and the running buffer was HBS-T+(10 mM HEPES, 150 mM NaCl, 0.05% Tween-20, pH 7.4). Channels were activated in the analyte (horizontal) direction by injecting a mixture of 1 mM ECD and 0.25 mM NHS for 3 minutes at a flow rate of 30 μL/min. IgGs were immobilized on the activated spots by injecting them in the ligand (vertical) direction at 20 μg/mL in 10 mM Acetate pH 4.5 buffer for 1.5 minutes at […]. The activated surfaces were blocked by injecting 1M ethanolamine, pH 8.5 in the analyte direction for 3 minutes at 30 μL/min.
(§2) The analysis temperature for the BCMA binding analysis was 37° C. or 25° C. in a running buffer of HBS-T+, supplemented with 1 mg/mL BSA. A kinetic titration method was employed for the interaction analysis as described in Abdiche, et al. Human BCMA (huBCMA) or cynomolgus monkey BCMA (cyBCMA) analyte was injected in the analyte direction using a series of injections from low to high concentration. The concentrations used were 0.08 nM, 0.4 nM, 2 nM, 10 nM and 50 nM (a 5-membered series, with a 5-fold dilution factor and top concentration of 50 nM). The association time for a given analyte dilution was two minutes. Immediately after the 50 nM BCMA injection, dissociation was monitored for 2 hours.
(§3) The sensorgrams were double-referenced and fit to a 1:1 Langmuir with mass transport kinetic titration model in BIAevaluation Software version 4.1.1 (GE Lifesciences, Piscataway, N.J.).

Point of comparison: B3, Kd 7 nM. Against it:
- B1 — 8.1-fold higher, 56.7 nM
- B2 — within 1.5-fold, 5.2 nM
- B4 — 3.5-fold higher, 24.3 nM
- B5 — 3.6-fold higher, 24.9 nM

Point of comparison: B2, “T ½” value 1.6 min. Against it:
- B1 — 2.7-fold lower, 0.6 min
- B3 — within 1.5-fold, 2 min
- B4 — 3.2-fold lower, 0.5 min
- B5 — 2.7-fold lower, 0.6 min

Point of comparison: B1, koff 0.018 s⁻¹. Against it:
- B2 — 2.6-fold lower, 0.00702 s⁻¹
- B3 — 3.2-fold lower, 0.00565 s⁻¹
- B4 — within 1.5-fold, 0.0219 s⁻¹
- B5 — within 1.5-fold, 0.0203 s⁻¹

Point of comparison: B4, kon 900000 M⁻¹ s⁻¹. Against it:
- B1 — 2.8-fold lower, 318000 M⁻¹ s⁻¹
- B2 — 1.5-fold higher, 1.36e+06 M⁻¹ s⁻¹
- B3 — within 1.5-fold, 802000 M⁻¹ s⁻¹
- B5 — within 1.5-fold, 814000 M⁻¹ s⁻¹

biological target: T1, Human BCMA; assay: SPR, IgG immobilised, 25 C
Procedure: as §1, §2, §3

Point of comparison: B7, Kd 4 nM. Against it:
- B1 — 2.2-fold higher, 8.76 nM
- B6 — 9.8-fold lower, 0.41 nM
- B2 — 4-fold lower, 1 nM
- B3 — within 1.5-fold, 4.37 nM
- B4 — within 1.5-fold, 4.44 nM
- B5 — within 1.5-fold, 3.93 nM

Point of comparison: B1, “T ½” value 2.96 min. Against it:
- B6 — 11-fold higher, 33.5 min
- B2 — 2.8-fold higher, 8.21 min
- B3 — within 1.5-fold, 3.32 min
- B7 — within 1.5-fold, 2.8 min
- B4 — within 1.5-fold, 2.87 min
- B5 — within 1.5-fold, 2.51 min

Point of comparison: B5, koff 0.00461 s⁻¹. Against it:
- B1 — within 1.5-fold, 0.0039 s⁻¹
- B2 — 3.3-fold lower, 0.00141 s⁻¹
- B3 — within 1.5-fold, 0.00348 s⁻¹
- B4 — within 1.5-fold, 0.00403 s⁻¹

Point of comparison: B5, kon 1.17e+06 M⁻¹ s⁻¹. Against it:
- B1 — 2.6-fold lower, 445000 M⁻¹ s⁻¹
- B2 — within 1.5-fold, 1.41e+06 M⁻¹ s⁻¹
- B3 — within 1.5-fold, 797000 M⁻¹ s⁻¹
- B4 — within 1.5-fold, 907000 M⁻¹ s⁻¹

biological target: T2, cynomolgus monkey BCMA; assay: SPR, IgG immobilised, 37 C
Summary of the method: (§4)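 IgG amine-coupled to the chip; human or cynomolgus BCMA analyte injected by kinetic titration at 0.08–50 nM (2 min each), 2 h dissociation, in HBS-T+ with 1 mg/mL BSA, pH 7.4, at 37° C or 25° C. Double-referenced sensorgrams fit to 1:1 Langmuir with mass transport.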

Point of comparison: B8, Kd 2.21 nM. Against it:
- B9 — 2.6-fold higher, 5.65 nM
- B10 — within 1.5-fold, 2.79 nM
- B11 — 1.6-fold higher, 3.48 nM

Point of comparison: B10, “T ½” value 1.91 min. Against it:
- B8 — within 1.5-fold, 2.3 min
- B9 — 1.6-fold lower, 1.16 min
- B11 — within 1.5-fold, 1.39 min

Point of comparison: B8, koff 0.00502 s⁻¹. Against it:
- B9 — 2-fold higher, 0.00998 s⁻¹
- B10 — within 1.5-fold, 0.00606 s⁻¹
- B11 — 1.7-fold higher, 0.0083 s⁻¹

Point of comparison: B10, kon 2.17e+06 M⁻¹ s⁻¹. Against it:
- B8 — within 1.5-fold, 2.27e+06 M⁻¹ s⁻¹
- B9 — within 1.5-fold, 1.77e+06 M⁻¹ s⁻¹
- B11 — within 1.5-fold, 2.39e+06 M⁻¹ s⁻¹

biological target: T1, Human BCMA; assay: SPR, IgG immobilised, 37 C
Summary of the method: as §4

Point of comparison: B8, Kd 0.34 nM. Against it:
- B9 — 8.7-fold higher, 2.95 nM
- B10 — within 1.5-fold, 0.45 nM
- B11 — 2.1-fold higher, 0.72 nM

Point of comparison: B9, “T ½” value 1.28 min. Against it:
- B8 — 8.4-fold higher, 10.7 min
- B10 — 8-fold higher, 10.2 min
- B11 — 4.3-fold higher, 5.56 min

Point of comparison: B8, koff 0.00109 s⁻¹. Against it:
- B9 — 8.3-fold higher, 0.00905 s⁻¹
- B10 — within 1.5-fold, 0.00113 s⁻¹
- B11 — 1.9-fold higher, 0.00208 s⁻¹

Point of comparison: B11, kon 2.88e+06 M⁻¹ s⁻¹. Against it:
- B8 — within 1.5-fold, 3.18e+06 M⁻¹ s⁻¹
- B9 — within 1.5-fold, 3.07e+06 M⁻¹ s⁻¹
- B10 — within 1.5-fold, 2.49e+06 M⁻¹ s⁻¹
